Experimental data taken from paper PMC2133148 (The Journal of Cell Biology, 1999).
No end group written: not given here.

What was measured:
Assay in all cases: two-hybrid
[1] = target: PS1-loop C T291A (LexA fusion bait) (human, UniProt P49768 264-294, T291A)
[2] = target: PS1-loop C (T281P, T291A) (LexA fusion bait) (human, UniProt P49768 264-294, T281P | T291A)
[3] = target: PS1-loop C (T281P, L282I) (LexA fusion bait) (human, UniProt P49768 264-294, T281P | L282I)
[4] = target: PS2-loop B (LexA fusion bait) (human, UniProt P49810 270-319)
[5] = target: PS2-loop C (LexA fusion bait) (human, UniProt P49810 270-300)
[6] = target: T1, PS2-loop D (LexA fusion bait) (human, UniProt P49810 301-319, also: LexA fusion bait)
T1 chain (looked up): TVGMAKLDPSSQGALQLPY

[7] = target: PS1-loop C (LexA fusion bait) (human, UniProt P49768 264-294)
[8] = target: PS1-loop C T281P (LexA fusion bait) (human, UniProt P49768 264-294, T281P)

B1: calmyrin (clone 7, full-length cDNA in pJG4-5) (natural protein, human, UniProt Q99828 1-191, looked up)
chain: MGGSGSRLSKELLAEYQDLTFLTKQEILLAHRRFCELLPQEQRSVESSLRAQVPFEQILSLPELKANPFKERICRVFSTSPAKDSLSFEDFLDLLSVFSDTATPDIKSHYAFRIFDFDDDGTLNREDLSRLVNCLTGEGEDTRLSASEMKQLIDNILEESDIDRDGTINLSEFQHVISRSPDFASSFKIVL
interaction relative to PS2-loop C [1]: ~0.33 fold of the PS2 level
interaction relative to PS2-loop C [2]: ~2 fold of the wild-type PS2-loop bait
interaction relative to PS1-loop C T281P [3]: 1.7 fold of T281P alone
fold increase in β-galactosidase activity over the lamin B control [4]: 8.5 fold
fold increase in β-galactosidase activity over the lamin B control [5]: 74 fold
fold increase in β-galactosidase activity over the lamin B control [6]: 2.2 fold
fold increase in β-galactosidase activity over the lamin B control [7]: 5.8 fold
interaction relative to PS2-loop C [8]: ~0.5 fold of the PS2 level
